Measured values reported in the DeepSol protein solubility set.

assay: soluble on expression in E. coli; label from the status in PepcDB or PDB records

| Sequence | soluble on expression in E. coli |
| --- | --- |
| MSLMTSKTSLALLCDFYEFTMSQGYFKNNKKDQICYFDIFFRKIPDSGSFAIFAGLEDILDFVENLSFDAEDIEFLRKQGIFDTEFLDFLANFKFKGEIYAMREGEVIFPNEPLLCIKATTIEAQLLETFLLLSLNHQSLIATKTNRIVRAAKDSKILEFGSRRAQGSEAALKGARAAFIGGCIGSACTLAGKIYNIPINGTMAHSWVQMFENELEAFKAYVKIYPKNPVFLIDTYDCLNSGLKNAIKVFKEFGIQEGGVRIDSGNLLELSLKIRQELDQAGLQKCKIIVSNALDEWSIKKLKEQNAPIDIFGVGERLITASSDPIFSCVYKLAALEDQGIKPKIKISENNEKSTLPHFKKLFRVYDKNTQKILFDELYVFDENPNQDENLERKELLELVYKEKRLLKKSSLNTIQDYTKEQISKLDESFLDLDRFVKFEVKLSPKLQNITEDLLKTRFEGHHHHHH | soluble |
| MSLNDILNEFIDKYFPLSNEPLLPDFKDLNYPENLPTLVIDLNYVIAKLEYDRKTGWRVLKRPYADRFFKELSSFYEIVIWSDDNFPVAQEVISKWGIPAIGCLHRDQCSKKKKSYVKDLKRLGRNLDRVVIIDHDAKAFMLQPENGILIKEFHGDLNDKEMLCLIDLLKSFAISTHDISQFLKKHGGGDYNIGKRYLQQKEGHHHHHH | soluble |
| MSLNGATQGLLGWSSRGEIAAEIADAKQSQSVYVDKIANSSLAEIQADPTLMQFALSGGAAAFKVNCIQCHGSGAEGGQGYPNLNDDDWMWGGSVDDIYTTVKHGIRFADDADTRASEMPAFGDILKSDEIRAVAAYVVSLTGTPSNPALVEPGKQLFADNCASCHGEDAKGNREFGAPNLADAIWLKAHGEEGIVAQIRSPKHGVMPAWGERLGDTTVKQLAIFVHSLGGGEGHHHHHH | not soluble |
| MSLNGITKYVEKLTFFNIQSGKQVEFNRDEKVILSNVPFIQQLPELDRGCEVTSLAMMLQYAGITVDKMKLANEIKKVDFMNDGVRGNPNEGFVGNIYTFSESGYGVYHGPLFQLAKKYLPNKAVDLTGKSIEELYKSVKAGQPVVIITNATFAPLDEDEFTTWETNNGDVSITYNEHCVVLIGYDQESVYIRDPLKDSLDVKVPREKFEQAWVQMGSQAISYVKRSKEGHHHHHH | soluble |
| MSLNGPLKIGYYKIGAAYRDGKGYDVDMVRELARRLGCPIANETELPRLRALKMLETGQIDVSASTLATPDRLQYAWIYQYNHAKNMVLLNPAIQARTLATLLEDPALRWGAIRGYHHGPSQDKLLEELNARHKVVIANDEDDLYKMLGNGVVTAVFAQPFSYGRWLRELPNPNQIVVLDLYPETDMVASGLALSKARFSREAAEKWHQELLKMYQDGSLYDIMRRYLNESAARQMMQKPIEEGHHHHHH | soluble |
| MSLNHSVRKCGYLRKQKHGHKRFFVLRGPGAGGDEATAGGGSAPQPPRLEYYESEKKWRSKAGAPKRVIALDCCLNINKRADAKHKYLIALYTKDEYFAVAAENEQEQEGWYRALTDLVSEGRAAAGDAPPAAAPAASCSASLPGALGGSAGAAGAEDSYGLVAPATAAYREVWQVNLKPKGLGQSKNLTGVYRLCLSARTIGFVKLNCEQPSVTLQLMNIRRCGHSDSFFFIEVGRSAVTGPGELWMQADDSVVAQNIHETILEAMKALKELFEFRPREGHHHHHH | soluble |
| MSLNKEQLKSLVIKTIDENREKILKIGQGIYKNPEYGYKEFKTTEAVSNFFEQELNLSVEKNIAVTGCKADANSSKKGPHISILGELDGISCKEHKDANEIGASHTCGHNIQIAGMLGAAVGLVKSGVLEHLDGKVSFMATPAEEFIELEYREQLKKEGKITYFGGKQELIKRGYFDDIDISMMFHASDLGEDKALVGPESNGFVGKKVKFIGKESHAGSAPHDGINALNAAMLAINNVNALRETFKESERVRFHPIITKGGDIVNVVPADVHMESYVRARTINGMIDANERINKALMAGGMAVGADVEITEIPGYLPILRYKSLDNLFKNNLEDLGLKGKVIDGGDFTGSFDFGDVSHIMPTLHPMIGGVKGALHTRDFEIVDEDLAYIIPAKAMALTVVDLLFDNAKDAKDILDTFTPVMTKKEYLTFLEKHDKTEGHHHHHH | soluble |
| MSLNKKLYIGMVGILSLMMVGCNKSLAKVNDVEITKEQYKKTKAVLSATNNYINGQSLDELEKTLDKKGRNKLENVIISFMVDNELLYQEAKDKGLTPSKSEVDSKYQELEDKMNLNTSYKEKMDKAGVDKDYLKQEISRDLAIDKNKKAFEDRINISDNDMEAYYTSHKKDFNVEEVSASQILISTLDKNKKEVSKDKKEALKKKADNILTKIKNGESFESLAKKYSDDKATGKNGGQLGYFTKDDKNAEFTKEVFKLKKNEVSNVFETSYGYHIVKVTDKRERQKSFNECQSLIRESILNEKYIEHIKKLNEDAKIDREGHHHHHH | soluble |
| MSLNLDYTTYRIICSHPFGISRSTHTYYDIVYIYISDGEYIGRGEAAPSVRYDESTNQIITHLKSIDNIDNNLNLEEGAFWCKKNSNGISSLEAALSTAWLDLWTKKNNRRISTYFNSGKNMLYTSFTIAIGDLDLIPKKIEEAKSYNILKIKLGINEQHDKNIIKLIRKETDKIIRVDANEGWDLDTGKKMCKWLADHNVEFVEQPFKAQNLGDTAKLRDVSPLPLIADENSIKSSNIPDIAHAFDGINIKLMKCGSLFEAKKMIDLARKYDMKIMLGCMVESSIGITAMSNLSPQVDFADLDGNLLIDNDPYIGVKVVDGKLKLPSGDGLGLTLNQKYRKDFGNLKEGHHHHHH | soluble |
| MSLNLLALPLRSEVELADARTRARHIAELLGLGNQDQVRVATVVSELARNVLLYAGSGQVTFSVRDEAGRSTLLIEVRDQGPGLGHLDEVLGGQYRSKTGMGVGLTGTRRLMDEFDIQTAPGKGTVVRVGKHLPAVVGDAEQRRVAEVLGSSGPRDLLTALSVQNRDLLETLAALNEREERLQVLNQELQDTNRGVVALYAELEEKAERLREANGLKTTFLSYMSHELRTPLHSMLGLARILSGQLDGPLNPEQLKQVQLLQGAAGDLLEMVNGLLDLAKMEAGKTDVDVTTFEVRELFGTLRALFLPLLDNPAVNLIFEDAAGFPPLTTDQRKVEQVLRNFIANALKFTAAGEVRVTAQLLPSGDRVRFTVQDTGIGLSDEEQAQLFQDFSQVGRPGRPAGTGLGLSIARKFTELLGGRVGVQSAPGAGAEFSAELPVVYPGVGAAKRPRALLIDDSEADRYVLTTLLTRAGYEVDEVAYAEPGLEQARSGAYDAVVLDLNLPDRSGLDVLRALRENAGTRSLPVLVVIAAALDAAERAALETLGASVHLKEALYQDEQVLFASLPSGSVHYGEAEGHHHHHH | soluble |
| MSLNLLFTGASGFLGYNVLPLLKKKYSVETIGLTSQDDYIVNLAAEIPKLAGKYDVILHVAGKAHSLPKTEAEKRLFFDVNLQGTKNLCTALEQSGIPKSFIFISTVAVYGCDSGENITEEYPLNGTTPYALSKIKAEKYLEEWCAMHNVKLSILRPSLIAGPNPPGNLGAMIHGIKSGKYLSIAGGKAQKSVLMVQDIANLVPLLIEKGGIYNVCDSYQPSFRELEMVICKQLNKKLPLSIPYWFAKSMAVFGDCFGEKAPINSLKLRKITHSLTFSNEKAMRELGWKPMNVLKNFREGHHHHHH | soluble |
| MSLNLVSKLEETASEKPDSIACRFKDHMMTYQELNEYIQRFADGLQEAGMEKGDHLALLLGNSPDFIIAFFGALKAGIVVVPINPLYTPTEIGYMLTNGDVKAIVGVSQLLPLYESMHESLPKVELVILCQTGEAEPEAADPEVRMKMTTFAKILRPTSAAKQNQEPVPDDTAVILYTSGTTGKPKGAMLTHQNLYSNANDVAGYLGMDERDNVVCALPMFHVFCLTVCMNAPLMSGATVLIEPQFSPASVFKLVKQQQATIFAGVPTMYNYLFQHENGKKDDFSSIRLCISGGASMPVALLTAFEEKFGVTILEGYGLSEASPVTCFNPFDRGRKPGSIGTSILHVENKVVDPLGRELPAHQVGELIVKGPNVMKGYYKMPMETEHALKDGWLYTGDLARRDEDGYFYIVDRKKDMIIVGGYNVYPREVEEVLYSHPDVKEAVVIGVPDPQSGEAVKGYVVPKRSGVTEEDIMQHCEKHLAKYKRPAAITFLDDIPKNATGKMLRRALRDILPQGHHHHHH | soluble |
| MSLNPKKYNGDHLDEKSREIMLKTIEFFENMGKAKLKEKASKREWYADFLEFIKENKIFYTLMTPPEYADGDPNVRWDTWRICDFSELLAFYSLDYWYTWQVTVLGLGPIWMSKNEKIKKEVAELLKNGAVFAFGLSEREHGADIYATETKLVPQPDGTYKAYGRKYYIGNSNVAAIISTFARIADPDGSLPDKPDKSRFAFFALRRDEKYYELIKNIVDAQMFVGDFLIHDYPVTEDDILEKGEEAWDAALNTVNVGKFNLGWASIGICTHAFYEAINHASKRRLYGMYVTDFPHIKRLFVDAYARLMAMKLFARRACDYMRVASREDRRYLLYSAMVKSKVTREGEEVINLLWDVIAAKGFEKDTYFEMAARHIRALPKLEGTVHVNMALILKFLPKYLFEPAEFPEVPKMDVPKHDEFLFNQGPSGGLSQVRFHDYQKVYDSFDFPNINVFKEQIATFKEMCMAAPPSPEQMRDFDFMVTWGEMFALLVYGHLILEAAKIYDVDKDLLEEIFDFMIRDFSKFAVELMAKPSATDKQIEYAKKMIKRPVPDKERFERVVKKVYSYADAYEMNEGHHHHHH | not soluble |
| MSLNPRPGKVVIYSEPDVSEKCIEVFSDIQDCSSWSLSPVILIKVVRGCWILYEQPNFEGHSIPLEEGELELSGLWGIEDILERHEEAESDKPVVIGSIRHVVQDYRVSHIDLFTEPEGLGILSSYFDDTEEMQGFGVMQKTCSMKVHWGTWLIYEEPGFQGVPFILEPGEYPDLSFWDTEAAYIGSMRPLKMGGRKVEFPTDPKVVVYEKPFFEGKCVELETGMCSFVMEGGETEEATGDDHLPFTSVGSMKVLRGIWVAYEKPGFTGHQYLLEEGEYRDWKAWGGYNGELQSLRPILGDFSNAHMIMYSEKNFGSKGSSIDVLGIVANLKETGYGVKTQSINVLSGVWVAYENPDFTGEQYILDKGFYTSFEDWGGKNCKISSVQPICLDSFTGPRRRNQIHLFSEPQFQGHSQSFEETTSQIDDSFSTKSCRVSGGSWVVYDGENFTGNQYVLEEGHYPCLSAMGCPPGATFKSLRFIDVEFSEPTIILFEREDFKGKKIELNAETVNLRSLGFNTQIRSVQVIGGIWVTYEYGSYRGRQFLLSPAEVPNWYEFSGCRQIGSLRPFVQKRIYFRLRNKATGLFMSTNGNLEDLKLLRIQVMEDVGADDQIWIYQEGCIKCRIAEDCCLTIVGSLVTSGSKLGLALDQNADSQFWSLKSDGRIYSKLKPNLVLDIKGGTQYDQNHIILNTVSKEKFTQVWEAMVLYTEGHHHHHH | not soluble |
| MSLNQASLERNELHNTIWKVANELRGSVDGWDFKQYVLGILFYRYISENMTHYINKEERKRDPSFDYAKLSDEKAERGRKHLIEQKGFFIPPSALFCNALKNACHNEDLNVTLQNIFNEIEKSSLGTPSEENVKGLFADLDVNSNKLGSSHQNRVEKLTKILEAIGGMQLGDYLKSGIDVFGDAYEYLMAMYASNAGKSGGEFFTPQEVSELLAKITLHGQESVNKVYDPCCGSGSLLLQFSKVLGDKNVSKGYFGQEINLTTYNLCRINMFLHDINYSKFHIAHGDTLLDPKHEDDEPFDAIVSNPPYSTKWVGDSNPILINDERFSPAGVLAPKNAADLAFTMHMLSYLSNSGTAAIVEFPGVLYRGNAEAKIREYLVKENVIDCVIALPDNLFFGTSIATCILVLKKNKQDDTTLFIDASKEFVKEGKKNKLKERNREKILQTYIERKEIKHFCALANIEKIKENDYNLSVNRYVEQEDTKEAIDIKALNSEIAQIVEKQSALRNRLESIIKELEGGQNEGHHHHHH | soluble |
| MSLNQIYQLTKPKFINVKYQEEAIDQENHILIRPNYMAVCHADQRYYQGKRDPKILNKKLPMAMIHESCGTVISDPTGTYEVGQKVVMIPNQSPMQSDEEFYENYMTGTHFLSSGFDGFMREFVSLPKDRVVAYDAIEDTVAAITEFVSVGMHAMNRLLTLAHSKRERIAVIGDGSLAFVVANIINYTLPEAEIVVIGRHWEKLELFSFAKECYITDNIPEDLAFDHAFECCGGDGTGPAINDLIRYIRPQGTILMMGVSEYKVNLNTRDALEKGLILVGSSRSGRIDFENAIQMMEVKKFANRLKNILYLEEPVREIKDIHRVFATDLNTAFKTVFKWEEGHHHHHH | soluble |
